Results from US20250206841A1 (ADEPT THERAPEUTICS, published 2025).
Residue numbers refer to the chain shown, from its start.

T1: human Trop-2 expressed on cell surface (human, UniProt P09758 27-323)
T1 construct: whole, on cells; also called cell surface Trop-2
T1 sequence (looked up): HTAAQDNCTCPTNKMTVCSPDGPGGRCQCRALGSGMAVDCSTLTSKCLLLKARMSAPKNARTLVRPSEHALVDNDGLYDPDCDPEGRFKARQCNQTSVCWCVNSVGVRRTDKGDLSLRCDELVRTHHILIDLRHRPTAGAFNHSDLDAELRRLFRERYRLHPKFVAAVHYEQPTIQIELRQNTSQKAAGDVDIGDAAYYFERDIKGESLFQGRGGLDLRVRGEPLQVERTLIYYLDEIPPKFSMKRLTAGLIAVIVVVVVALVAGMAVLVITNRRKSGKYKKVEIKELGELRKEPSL

T2: human Trop-2-His protein (human, UniProt P09758 27-274)
T2 construct: extracellular domain; Assay paragraphs say only 'Trop-2-His'; also called hTrop-2; Kactus Cat #TRP-HM121; not shown: His tag
T2 sequence (looked up): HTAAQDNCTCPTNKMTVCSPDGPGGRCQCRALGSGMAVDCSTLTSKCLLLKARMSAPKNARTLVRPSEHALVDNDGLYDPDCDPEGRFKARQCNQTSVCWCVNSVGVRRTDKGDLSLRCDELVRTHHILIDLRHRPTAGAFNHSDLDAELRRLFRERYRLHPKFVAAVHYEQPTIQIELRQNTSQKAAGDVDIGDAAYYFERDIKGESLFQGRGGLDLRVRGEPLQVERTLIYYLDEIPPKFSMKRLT

T3: cynomolgus Trop-2-His protein (cynomolgus, UniProt P09758 27-274 (human entry))
T3 construct: also called cynmolgus Trop-His; Kactus Cat #TRP-CM121; not shown: His tag
T3 chain: T2 sequence (looked up) with M36V, S67N, G139S, I204V

B1: 9D7-2 (antibody, V domains shown)
VH: QSLEESGGDLVQPGASLTLTCKASGFDLNNYSILWVRQAPGKGLEWIGSIYISGGSTYYANWAKGRFAISKTSSTTVTLQMTSLTAADTATYFCARDDGTASYYLNLWGPGTLVTVSS
VL: YDMTQTPASVSEPVGGTVTIKCQASEDIYKLLAWYQQKPGQPPKLLIYAASDLESGVPSRFKGRGSGTDYTLTISDLEAADAATYYCQQAYTIGNIDNSFGGGTEVVVK
B2: 10A9-2 (antibody, V domains shown)
VH: B1 VH with S32A, I33M, S56T, Y59F, N61S, K64T, A101T
VL: B1 VL with E12A, P13A, K30S, A49G, D52N, R64S, D69E, A80D, S99A
B3: 10A9 (antibody, V domains shown)
VH: B1 VH with S32A, I33M, S49C, S56T, Y59F, N61S, K64T, A101T
VL: B1 VL with E12A, P13A, K30S, A49G, D52N, R64S, D69E, A79C, A80D, S99A
notes: Rabbit-derived clone; LEM construct: VH + rabbit IgG CH1 + human IgG1 CH2-CH3
B4: 74F11/15F5 (antibody, human IgG1, V domains shown)
VH: QEQLKESGGGLVQPGGSLKLSCKASGFDFNNYGMSWVRQAPGKGLEWIAYIYPAFHNTYYANWVNGRFTISSDNAQNTVDLQLNSLTAADTATYFCARDAGSTDYNFNLWGPGTLVTVSS
VL: DVVMTQTPASVEAAVGGTVTIKCQASEDIERYLAWYQQKPGQPPKLLIYEASKLPSGVSSRFSGSGYGTEFTLTISGVECADAATYYCQQALTIGYVDNPFGGGSEVVVK
notes: LEM construct: VH + rabbit IgG CH1 + human IgG1 CH2-CH3

These binders were tested against T1, human Trop-2 expressed on cell surface (assay: flow cytometry, MCF-7 cells).
Protocol: (§1) Cells were then resuspended in FACS buffer (1×DPBS/1% FBS) at 10⁶/ml concentration. One hundred microliter (100 μl) of cells were aliquoted into a single well in 96 well plates. The antibodies to be tested were serially diluted at 1:3 fold starting at 15 μg/mL and were then added into each well. The antibodies were mixed with cells and the mixtures were incubated on ice for 1 hour. After washing with FACS buffer, one hundred microliter (100 μl) of 1:400 diluted PE-conjugated anti-human Fc secondary antibody (Jackson Immuno Research) was added into each well and incubated for 30 minutes on ice. After washing with FACS buffer, stained cells were resuspended at diluted 7-ADD (Biolegend, used at 1:100 dilution) and analyzed on Guava 11HT or 5HT (Luminex). Data was analyzed using Flowjo software. EC₅₀ values were calculated using GraphPad Prism. Sacitnzurnab govitecan was used as positive control. Anti-HEL.hIgG1 was used as isotype negative control. Similar assay was performed using MCF-7 cells (known to express human Trop-2).

| EC50 [nM] | Binder |
| --- | --- |
| 1 | B1 |
| 1.8 | B2 |
| 1.4 | B3 |
| 0.9 | B4 |

The binders below were run against T1, human Trop-2 expressed on cell surface (assay: flow cytometry, MDA-MB-231-GFP cells).
Protocol: as §1

| EC50 [nM] | Binder |
| --- | --- |
| 0.1 | B1 |
| 0.04 | B2 |
| 0.04 | B3 |
| 0.02 | B4 |

The binders below were run against T2, human Trop-2-His protein (assay: BLI (Gator Plus), purified Ab on HFC probe).
Protocol: The affinity of the binding of the exemplary anti-Trop-2 antibodies of the present disclosure were determined. Assay was performed using Gator Plus according to the protocol recommended by Gator Bio Inc.. Briefly, human Trop-2-His (Kactus) was 1:4 fold serially diluted starting at 1 μg/ml. After three times of regeneration and neutralization of HFC probe, 1 μg/ml of antibody to be tested in Q buffer was immobilized onto HFC probe. […] The association and dissociation of human Trop-2-His antigen from antibody was measured on BLI machine Gator Plus. Affinity was calculated using Gator Bio analysis software. Blank control was used for reference subtraction. Sacituzumab govitecan was used as positive control.

| Kd [nM] | koff [s⁻¹] | kon [M⁻¹ s⁻¹] | Binder |
| --- | --- | --- | --- |
| 2.86 | 0.00126 | 438000 | B1 |
| 2.66 | 0.00089 | 335000 | B2 |
| 0.18 | 8.2e-05 | 448000 | B3 |
| 0.01 | 9e-06 | 707000 | B4 |

Target: T3, cynomolgus Trop-2-His protein
Experiment: ELISA, coated Trop-2 protein
Protocol: (§2) Purified antibodies were tested by ELISA to confirm their binding and affinity against human and cynomolgus Trop-2-His protein. Briefly, 96-well Maxisorp plates (Nunc) were coated with 100 μl/well of 0.5 μg/ml human (Kactus Cat #TRP-HM121, or Sino Biological, Cat #10428-HO8H) or cynomolgus Trop-2 protein (Kactus Cat #TRP-CM121, or Sino Biological, Cat #90893-CO8H) diluted in 1×PBS (GIBCO) overnight at 4° C. Plates were washed four times with 300 μl/well washing buffer (1×PBST, diluted from 20×PBST (Thermo Scientific) with distilled water)) and then blocked with 300 μl/well of blocking buffer (1×PBST/3% BSA (BSA, Sigma)) for 2 hours at RT on plate shaker at 100 rpm. Plates were washed and added with 100 μl/well of testing antibodies, which were serial diluted with assay buffer (PBST/1% BSA). The antibodies were incubated at room temperature for 2 hours on plate shaker at 100 rpm. Plates were washed. One hundred microliters (100 μl) of 1:10,000 diluted horseradish peroxidase (HRP) conjugated anti-hIgG antibody (Jackson Immuno Research) was added into each well and incubated at room temperature for 1 hour on plate shaker at 100 rpm. Plates were washed and added with 100 μl/well TMB substrate for color development in dark at room temperature for up to 10 minutes. After addition of 50 μl/well of stop solution (1N H₂SO₄), plates were read at 450 nm on a plate reader (SpectraMax M5). EC₅₀ values were calculated using Graphpad Prism. Sacituzumab govitecan, was used as positive control. Anti-HEL.hIgG1 was used as isotype control.

| EC50 [nM] | Binder |
| --- | --- |
| 0.014 | B1 |
| 0.016 | B2 |
| 0.015 | B3 |
| 0.014 | B4 |

The binders below were run against T2, human Trop-2-His protein (assay: ELISA, coated Trop-2 protein).
Protocol: as §2

| EC50 [nM] | Binder |
| --- | --- |
| 0.02 | B1 |
| 0.014 | B2 |
| 0.017 | B3 |
| 0.013 | B4 |

The binders below were run against T1, human Trop-2 expressed on cell surface (assay: cell-based or functional assay).

| EC50 of ADCC (NFAT-CD16 reporter), MCF-7 [nM] | EC50 of ADCC (NFAT-CD16 reporter), MDA-MB-231 [nM] | Binder |
| --- | --- | --- |
| 0.23 | 0.11 | B1 |
| 0.28 | 0.07 | B2 |
| 0.32 | 0.06 | B3 |
| 0.27 | 0.09 | B4 |

Target: T1, human Trop-2 expressed on cell surface
Experiment: cell-based or functional assay
Remark: another data set of the same source

| Internalization %, MDA-MB-231, 0.25 µg/ml, 2 h [%] | Internalization %, MDA-MB-231, 0.25 µg/ml, 4 h [%] | Internalization %, MDA-MB-231, 0.5 µg/ml, 2 h [%] | Internalization %, MDA-MB-231, 0.5 µg/ml, 4 h [%] | Internalization %, MDA-MB-231, 1 µg/ml, 2 h [%] | Internalization %, MDA-MB-231, 1 µg/ml, 4 h [%] | Internalization %, MDA-MB-231, 2 µg/ml, 2 h [%] | Internalization %, MDA-MB-231, 2 µg/ml, 4 h [%] | Binder |
| --- | --- | --- | --- | --- | --- | --- | --- | --- |
| 52 | 63 | 49 | 58 | 51 | 62 | 48 | 59 | B1 |
| 46 | 55 | 44 | 55 | 43 | 57 | 45 | 58 | B2 |
| 54 | 57 | 47 | 53 | 40 | 55 | 38 | 49 | B3 |
| 42 | 52 | 37 | 45 | 42 | 48 | 39 | 46 | B4 |

Target: T1, human Trop-2 expressed on cell surface
Experiment: cell-based or functional assay
Remark: another data set of the same source

| Internalization %, MCF-7, 0.25 µg/ml, 1 h [%] | Internalization %, MCF-7, 0.25 µg/ml, 2 h [%] | Internalization %, MCF-7, 0.25 µg/ml, 4 h [%] | Internalization %, MCF-7, 0.5 µg/ml, 1 h [%] | Internalization %, MCF-7, 0.5 µg/ml, 2 h [%] | Internalization %, MCF-7, 0.5 µg/ml, 4 h [%] | Binder |
| --- | --- | --- | --- | --- | --- | --- |
| 29 | 42 | 57 | 28 | 42 | 52 | B1 |
| 28 | 37 | 48 | 31 | 47 | 64 | B2 |
| 15 | 33 | 45 | 26 | 39 | 49 | B3 |
| 22 | 35 | 64 | 22 | 54 | 50 | B4 |
